Experimental data taken from patent US20200371101A1.

Experiments:
[1] = molecular target: His-tagged IDO1 human recombinant protein (71182, BPS Biosciences) (human) (UniProt P14902); assay: ELISA: biotin-PEG3 macrocycle on NeutrAvidin plate, His-tagged human IDO1 titrated, AP-conjugated anti-6XHis antibody, fluorescence
[2] = molecular target: His-tagged IDO1 human recombinant protein (71182, BPS Biosciences) (human) (UniProt P14902); assay: ELISA: biotinylated peptide on NeutrAvidin plate, 6xHis-tagged human IDO1 titrated
[3] = molecular target: murine IDO1 protein (mouse) (UniProt P28776); assay: ELISA, immobilized macrocycle, mouse IDO1 titrated
[4] = molecular target: His-tagged IDO1 human recombinant protein (71182, BPS Biosciences) (human) (UniProt P14902); assay: cell-based or functional assay
[5] = molecular target: His-tagged IDO1 human recombinant protein (71182, BPS Biosciences) (human) (UniProt P14902); assay: ELISA, immobilized macrocycle, human IDO1 titrated
[6] = molecular target: His-tagged IDO1 human recombinant protein (71182, BPS Biosciences) (human) (UniProt P14902); assay: sandwich ELISA: biotinylated macrocycle on NeutrAvidin plate, His-tagged IDO1 titrated, anti-6XHis-AP detection
[7] = molecular target: His-tagged IDO1 human recombinant protein (71182, BPS Biosciences) (human) (UniProt P14902); assay: binding analysis, method not named
[8] = molecular target: His-tagged IDO1 human recombinant protein (71182, BPS Biosciences) (human) (UniProt P14902); assay: sandwich ELISA: 200 nM biotinylated macrocycle immobilized on NeutrAvidin plate, His-tagged IDO1 titrated, anti-6XHis-AP detection

His-tagged IDO1 human recombinant protein (71182, BPS Biosciences) (human), sequence (P14902 2-403 limits assumed): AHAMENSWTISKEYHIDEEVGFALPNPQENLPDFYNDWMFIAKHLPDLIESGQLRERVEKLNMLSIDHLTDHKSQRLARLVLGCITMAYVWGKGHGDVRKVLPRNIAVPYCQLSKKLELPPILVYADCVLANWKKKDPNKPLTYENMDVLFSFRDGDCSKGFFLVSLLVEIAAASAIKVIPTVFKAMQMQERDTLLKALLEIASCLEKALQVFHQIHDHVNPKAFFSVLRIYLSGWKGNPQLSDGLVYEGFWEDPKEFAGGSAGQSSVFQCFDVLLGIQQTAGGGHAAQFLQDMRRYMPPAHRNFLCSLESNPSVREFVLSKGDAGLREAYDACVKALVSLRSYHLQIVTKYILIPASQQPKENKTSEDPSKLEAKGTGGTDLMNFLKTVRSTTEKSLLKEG
murine IDO1 protein (mouse), sequence (P28776 2-406 limits assumed): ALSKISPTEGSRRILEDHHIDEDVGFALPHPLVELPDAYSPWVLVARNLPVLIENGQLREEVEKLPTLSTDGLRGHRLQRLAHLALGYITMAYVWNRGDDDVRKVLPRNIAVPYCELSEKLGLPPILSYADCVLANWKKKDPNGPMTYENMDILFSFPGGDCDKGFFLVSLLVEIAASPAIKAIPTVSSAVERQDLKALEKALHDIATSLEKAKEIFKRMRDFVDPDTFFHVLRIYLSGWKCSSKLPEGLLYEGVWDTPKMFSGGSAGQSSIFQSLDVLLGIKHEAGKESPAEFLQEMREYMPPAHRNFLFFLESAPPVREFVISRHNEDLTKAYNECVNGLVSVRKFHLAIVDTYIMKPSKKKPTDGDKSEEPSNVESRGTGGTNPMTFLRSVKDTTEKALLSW

Biotin-PEG3-Cy(arf(Me-Trp)s) (peptide)
EC50 [1]: 79 nM

Biotin-PEG3-Cy(frf(Me-Trp)) (peptide)
EC50 [1]: 12 nM

Biotin-PEG3-Cy(frf(Me-Trp)a) (peptide)
EC50 [1]: 57 nM

Biotin-PEG3-Cy(lf(Me-Trp)(F-Phe)) (peptide)
EC50 [1]: 39 nM

Biotin-PEG3-Cy(saww(F-Phe)) (peptide)
EC50 [1]: 42 nM

Biotin-PEG3-Cy(spaw(F-Phe)) (peptide)
EC50 [1]: 111 nM

Biotin-PEG3-Cy(sww(F-Phe)) (peptide)
EC50 [1]: 70 nM

alf(Me-Trp)(F-Phe) (peptide)
EC50 [1]: 50 nM

apww(F-Phe) (peptide)
EC50 [1]: 106 nM

biotin-PEG3-Cy(frf(Me-Trp)s) (peptide)
EC50 [2]: 20 nM | EC50 [3]: 36 nM | IC50, IDO1 Fluorogenic Inhibitor Screening Assay (enzyme inhibition) [4]: > 40000 nM | EC50 [5]: 18 nM | EC50 [6]: 20 nM

biotin-PEG3-Cy(nlf(Me-Trp)(F-Phe)) (peptide)
EC50 [3]: 89 nM | EC50 [7]: 44 nM | EC50 [5]: 19 nM | EC50 [6]: 20 nM

biotin-PEG3-Cy(nlw(Me-Trp)r) (peptide)
EC50 [3]: 48 nM | EC50 [5]: 51 nM | EC50 [6]: 43 nM

biotin-PEG3-Cy(nsfr(Me-Trp)) (peptide)
EC50 [2]: 124 nM | EC50 [6]: 124 nM

biotin-PEG3-Cy(nsh(F-Phe)r) (peptide)
EC50 [6]: 68 nM

biotin-PEG3-Cy(rys(Me-Trp)r) (peptide)
EC50 [3]: 17 nM | IC50, IDO1 Fluorogenic Inhibitor Screening Assay (enzyme inhibition) [4]: > 40000 nM | EC50 [5]: 91 nM | EC50 [8]: 81 nM

biotin-PEG3-Cy(spww(F-Phe)) (peptide)
EC50 [3]: 44 nM | IC50, IDO1 Fluorogenic Inhibitor Screening Assay (enzyme inhibition) [4]: > 40000 nM | EC50 [5]: 85 nM | EC50 [6]: 65 nM

fra(Me-Trp)s (peptide)
EC50 [1]: 107 nM

n-f(Me-Trp)(F-Phe) (peptide)
EC50 [1]: 128 nM

naf(Me-Trp)(F-Phe) (peptide)
EC50 [1]: 82 nM

nla(Me-Trp)(F-Phe) (peptide)
EC50 [1]: 116 nM

nlf(Me-Trp) (peptide)
EC50 [1]: 45 nM

nlf(Me-Trp)a (peptide)
EC50 [1]: 104 nM

nlfa(F-Phe) (peptide)
EC50 [1]: 69 nM

pww(F-Phe) (peptide)
EC50 [1]: 104 nM

spww (peptide)
EC50 [1]: 144 nM

spwwa (peptide)
EC50 [1]: 111 nM
